# Source: US7470668B2, “Method of use of specific natriuretic peptide receptor c ligands, transgenic non-human mammals expressing specific natriuretic peptide receptor c antagonists and cells thereof” (Enobia Pharma Inc., priority 2005, dated 2008)
# No end group written: not given here.
# T1: NPR-C (Homo sapiens, UniProt P17342)
# T1 construct: expressed in transfected cells; host or cells: HEK293, transient, pCDNA1.1 (CMV promoter)
# T1 sequence (P17342 27-541): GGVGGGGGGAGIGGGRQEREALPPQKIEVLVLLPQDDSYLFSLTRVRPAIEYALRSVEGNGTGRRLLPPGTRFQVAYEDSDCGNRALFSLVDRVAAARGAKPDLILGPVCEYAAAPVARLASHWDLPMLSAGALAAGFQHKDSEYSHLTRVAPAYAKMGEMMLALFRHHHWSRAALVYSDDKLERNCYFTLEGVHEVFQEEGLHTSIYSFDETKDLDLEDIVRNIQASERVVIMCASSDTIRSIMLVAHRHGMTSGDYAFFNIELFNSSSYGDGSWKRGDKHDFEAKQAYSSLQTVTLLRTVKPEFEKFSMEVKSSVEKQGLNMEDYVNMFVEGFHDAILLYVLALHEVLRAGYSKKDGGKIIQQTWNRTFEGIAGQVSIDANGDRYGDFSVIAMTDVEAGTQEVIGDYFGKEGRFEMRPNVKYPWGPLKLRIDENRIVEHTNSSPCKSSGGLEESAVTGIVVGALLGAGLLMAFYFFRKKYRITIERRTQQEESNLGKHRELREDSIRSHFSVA
# T2: human GC-B (Homo sapiens, UniProt P20594)
# T2 construct: expressed in transfected cells; host or cells: HEK293, transient, pCDNA1.1 (CMV promoter)
# T2 sequence (P20594 23-1047): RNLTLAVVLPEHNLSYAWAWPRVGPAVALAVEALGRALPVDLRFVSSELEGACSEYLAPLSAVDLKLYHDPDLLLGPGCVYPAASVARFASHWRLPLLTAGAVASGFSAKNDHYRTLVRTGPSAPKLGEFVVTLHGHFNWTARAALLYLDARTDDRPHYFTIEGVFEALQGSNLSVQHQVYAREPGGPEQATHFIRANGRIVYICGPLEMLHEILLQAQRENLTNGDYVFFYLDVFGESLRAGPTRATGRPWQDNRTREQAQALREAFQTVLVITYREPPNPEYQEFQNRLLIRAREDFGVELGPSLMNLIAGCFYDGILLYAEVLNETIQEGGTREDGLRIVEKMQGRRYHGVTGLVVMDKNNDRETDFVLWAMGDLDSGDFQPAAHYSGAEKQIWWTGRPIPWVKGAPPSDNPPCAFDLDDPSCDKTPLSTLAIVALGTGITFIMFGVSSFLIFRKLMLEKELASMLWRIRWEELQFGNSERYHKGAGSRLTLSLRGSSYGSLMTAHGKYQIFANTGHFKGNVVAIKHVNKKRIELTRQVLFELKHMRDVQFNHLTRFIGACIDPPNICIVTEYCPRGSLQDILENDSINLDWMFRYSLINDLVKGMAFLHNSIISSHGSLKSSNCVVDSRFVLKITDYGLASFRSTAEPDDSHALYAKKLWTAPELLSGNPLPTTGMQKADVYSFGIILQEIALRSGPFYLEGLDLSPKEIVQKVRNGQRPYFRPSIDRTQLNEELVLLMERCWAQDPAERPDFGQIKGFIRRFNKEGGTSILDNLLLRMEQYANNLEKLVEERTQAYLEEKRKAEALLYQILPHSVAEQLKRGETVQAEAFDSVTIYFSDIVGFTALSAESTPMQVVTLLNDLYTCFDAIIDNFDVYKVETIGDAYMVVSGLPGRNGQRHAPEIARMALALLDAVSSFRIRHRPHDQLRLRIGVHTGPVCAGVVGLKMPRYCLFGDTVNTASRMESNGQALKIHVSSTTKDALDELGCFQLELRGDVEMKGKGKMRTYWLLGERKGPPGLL
# T3: rat GC-A (Rattus norvegicus, UniProt P18910)
# T3 construct: expressed in transfected cells; host or cells: HEK293, transient, CMV-driven pBK plasmid (gift of Dr. A. De Léan)
# T3 sequence (P18910 29-1057): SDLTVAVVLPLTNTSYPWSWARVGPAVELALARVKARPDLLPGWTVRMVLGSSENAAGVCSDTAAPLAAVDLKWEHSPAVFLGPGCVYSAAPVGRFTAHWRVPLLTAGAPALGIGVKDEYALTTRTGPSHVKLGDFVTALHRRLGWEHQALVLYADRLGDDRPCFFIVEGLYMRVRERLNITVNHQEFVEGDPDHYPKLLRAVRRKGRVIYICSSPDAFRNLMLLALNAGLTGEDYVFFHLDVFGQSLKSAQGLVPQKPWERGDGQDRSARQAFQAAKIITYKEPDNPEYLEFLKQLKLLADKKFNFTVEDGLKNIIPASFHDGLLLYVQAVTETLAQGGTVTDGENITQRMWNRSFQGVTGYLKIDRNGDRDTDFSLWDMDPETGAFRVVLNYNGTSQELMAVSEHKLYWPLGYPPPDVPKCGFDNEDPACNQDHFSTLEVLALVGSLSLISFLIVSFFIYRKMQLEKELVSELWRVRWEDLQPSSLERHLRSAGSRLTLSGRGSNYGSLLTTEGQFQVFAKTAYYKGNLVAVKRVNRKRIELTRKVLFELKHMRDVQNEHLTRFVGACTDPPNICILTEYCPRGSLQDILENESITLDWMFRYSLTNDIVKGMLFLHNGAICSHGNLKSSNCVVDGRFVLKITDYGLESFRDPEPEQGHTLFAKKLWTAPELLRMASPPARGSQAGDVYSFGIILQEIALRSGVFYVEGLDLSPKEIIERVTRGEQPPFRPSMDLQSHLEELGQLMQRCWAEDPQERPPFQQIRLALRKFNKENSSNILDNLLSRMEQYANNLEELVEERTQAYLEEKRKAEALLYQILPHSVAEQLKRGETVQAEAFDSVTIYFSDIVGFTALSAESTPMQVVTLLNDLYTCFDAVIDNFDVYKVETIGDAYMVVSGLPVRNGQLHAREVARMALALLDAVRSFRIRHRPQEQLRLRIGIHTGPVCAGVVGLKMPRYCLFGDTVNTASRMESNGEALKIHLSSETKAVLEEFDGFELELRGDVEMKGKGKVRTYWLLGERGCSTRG
# Assays:
# NPR-C = molecular target: T1, NPR-C; assay: Competition of PLAP-Ostn binding on NPR-C over-expressing cells; conditions: ~30 nM PLAP-Ostn, NPR-C transfected cells; read-out: concentration competing off 50% of the binding of PLAP-mOstn
# From the text: (§1) The expression plasmid for rat GC-A containing the entire coding sequence cloned between the NheI-KpnI sites of CMV-driven pBK plasmid (Stratagene, La Jolla, Calif.) was kindly provided by Dr. A. De Léan (Département de Pharmacologie, Université de Montréal). The human NPR-C and GC-B coding sequences were amplified by RT-PCR from human embryonic kidney polyA RNA (Clontech, Palo Alto, Calif.) with the following primer pairs: NPR-C-5′-[…]-3′(forward) (SEQ ID NO: 74) and 5′-[…]-3′ (SEQ ID NO: 75) (reverse); GC-B-5′-[…]-3′ (SEQ ID NO: 76) (forward) and 5′-[…]-3′ (SEQ ID NO: 77) (reverse). The resulting PCR products were then cloned downstream of the CMV-promoter into the pCDNA1.1 plasmid (Invitrogen, Burlington, ON, Canada). All constructs were validated by DNA sequencing.
# human GC-B = molecular target: T2, human GC-B; assay: PLAP-Ostn binding to GC-B transfected HEK293 cells; conditions: cells overexpressing GC-B
# From the text: as §1
# (§2) To analyze the potential binding of Ostn to natriuretic receptors, a fusion protein (PLAP-Ostn) (FIG. 6) was generated as described above. This fusion protein comprised an N-terminal secreted placental alkaline phosphatase (PLAP) moiety linked to mature mouse Ostn (residues 29-130) (SEQ ID NO: 62). Conditioned media containing PLAP-mOstn was used to assess Ostn binding on transiently transfected cells.
# (§3) Expression vectors for the coding sequence of GC-A, GC-B and NPR-C were constructed, transfected into human embryonic kidney (HEK) 293 cells and the cells incubated with either 37 nM PLAP or the PLAP-Ostn fusion. […]
# rat GC-A = molecular target: T3, rat GC-A; assay: PLAP-Ostn binding to GC-A transfected HEK293 cells; conditions: cells overexpressing GC-A (not shown)
# From the text: as §1, §2, §3
IC50 (NPR-C),specific binding (human GC-B),specific binding (rat GC-A),Molecule
1 to 10 nM,,,YDHSKKRFGIPMDRIGRNRLSNSR-NH2 [Ostn[107-129]]
,No specific binding,No specific binding,PLAP-mOstn: fusion protein: N-terminal secreted placental alkaline phosphatase moiety linked to mature mouse Ostn residues 29-130 (SEQ ID NO: 70) (protein) DAAQPARRARRTYEAYVRSSGIIPVEEENPDFWNREAAEALGAAKKLQPAQTAAKNLIIFLGDGMGVSTVTAARILKGQKKDKLGPEIPLAMDRFPYVALSKTYNVDKHVPDSGATATAYLCGVKGNFQTIGLSAAARFNQCNTTRGNEVISVMNRAKKAGKSVGVVTTTRVQHASPAGTYAHTVNRNWYSDADVPASARQEGCQDIATQLISNMDIDVILGGGRKYMFPMGTPDPEYPDDYSQGGTRLDGKNLVQEWLAKRQGARYVWNRTELMQASLDPSVTHLMGLFEPGDMKYEIHRDSTLDPSLMEMTEAALRLLSRNPRGFFLFVEGGRIDHGHHESRAYRALTETIMFDDAIERAGQLTSEEDTLSLVTADHSHVFSFGGYPLRGSSIFGLAPGKARDRKAYTVLLYGNGPGYVLKDGARPDVTESESGSPEYRQQSAVPLDEETHAGEDVAVFARGPQAHLVHGVQEQTFIAHVMAFAACLEPYTACDLAPPAGTTDAAHPGYLDLASQEFGTASLQSPPTAREEKSATELSAKLLRLDDLVSLENDVFETKKKRSFSGFGSPLDRLSAGSVEHRGKQRKAVDHSKKRFGIPMDRIGRNRLSSSRG
